Patent publication US20220033519A1 (NATIONAL RESEARCH COUNCIL OF CANADA, published 2022)

T1: soluble and secreted FUT8 (sFUT8) enzyme (aa 87-575; UniProtKB #Q9BYC5) with C-terminal polyhistidine tag (UniProt Q9BYC5 87-575)
T1 sequence: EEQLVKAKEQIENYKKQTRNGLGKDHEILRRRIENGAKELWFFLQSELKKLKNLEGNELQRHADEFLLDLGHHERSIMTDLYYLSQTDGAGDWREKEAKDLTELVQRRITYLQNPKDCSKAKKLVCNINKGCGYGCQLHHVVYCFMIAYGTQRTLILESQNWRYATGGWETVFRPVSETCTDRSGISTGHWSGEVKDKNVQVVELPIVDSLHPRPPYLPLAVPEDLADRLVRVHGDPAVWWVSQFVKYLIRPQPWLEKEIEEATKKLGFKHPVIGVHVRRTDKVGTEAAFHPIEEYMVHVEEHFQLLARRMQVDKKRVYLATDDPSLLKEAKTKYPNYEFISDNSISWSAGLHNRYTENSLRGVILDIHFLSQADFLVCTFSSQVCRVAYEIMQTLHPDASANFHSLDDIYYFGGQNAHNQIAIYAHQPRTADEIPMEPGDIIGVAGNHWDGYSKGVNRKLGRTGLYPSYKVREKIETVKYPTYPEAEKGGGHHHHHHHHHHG

B1: anti-FUT8 monoclonal antibody 1D2 (hybridoma) (antibody, V domains shown)
VH: QVQLKESGPGLVAPSQSLSITCTVSGFSLTGYGVNWVRQPPGKGLEWLGMIWGDGSTDYNSALKSRLSISKDNSKSQVFLKMNSLQTDDTASYYCARDFYDGYLYAMDYWGQGTSVTVSSAS
VL: DIVMTQSQKFMSTSLGDRVSVTCKASQNVGSYVAWYQQKPGQSPKALIYSASYRYSGVPDRFAGSGSGTDFTLTISNVQSEDLAEYFCQQYYTYPYTFGGGTWSTRLASWAFRSL
B2: anti-FUT8 monoclonal antibody 1H9 (hybridoma) (antibody, V domains shown)
VH: EVQLQQSGPELVKPGASVKMSCKASGYIFTDYVMHWVKQSNGKSLEWIGYINPYNDYSNYNQKFKGKATLTVDKSSNTAYMQLNSLTSEDSAVYFCARSGDVWLAYWGQGTLVTISA
VL: DIVLTQSPASLAISLGQRATISCRASKSVSTSGYSYMHWYQQKPGQPPRLLIYLASNLESGVPARFSGSGSGTDFTLNIHPVEEEDGATYYCQHSRELPWTFGGGT
B3: anti-FUT8 monoclonal antibody 5C9 (hybridoma) (antibody, V domains shown)
VH: QVQLKESGPGLVAPSQSLSITCTVSGFSLTGYGVNWVRQPPGKGLEWLGTIWGDGSTDYNSALKSRLSISKDNSKTQVFLKMHSLQTDDTAIYYCARGGYDDYFGYAMDYWGQGTSVTVSS
VL: DIVMTQSQKFMSTVVGDRVSVTCKASQNVGTNVAWYQQKPGQSPKALIYSASYRYSGVPDRLTGSGSGTDFTLTFSYVQSEDLAEYFCQQYYTYPYTFGGGTKLEIK

These binders were tested against T1, soluble and secreted FUT8 (sFUT8) … (assay: cell-based or functional assay).

FUT8 enzymatic activity (% inhibition)	Binder
82%	B1
60%	B2
87%	B3
